15 molecules from patent US20170304442A1 (SORRENTO THERAPEUTICS, published 2017) can be followed below.

Assay [1] concerns the target T1, recombinant mouse WISP1/His (mouse, UniProt O54775 23-367).
T1 construct: also called murine WISP1; mWISP1; not shown: His tag
T1 sequence (looked up): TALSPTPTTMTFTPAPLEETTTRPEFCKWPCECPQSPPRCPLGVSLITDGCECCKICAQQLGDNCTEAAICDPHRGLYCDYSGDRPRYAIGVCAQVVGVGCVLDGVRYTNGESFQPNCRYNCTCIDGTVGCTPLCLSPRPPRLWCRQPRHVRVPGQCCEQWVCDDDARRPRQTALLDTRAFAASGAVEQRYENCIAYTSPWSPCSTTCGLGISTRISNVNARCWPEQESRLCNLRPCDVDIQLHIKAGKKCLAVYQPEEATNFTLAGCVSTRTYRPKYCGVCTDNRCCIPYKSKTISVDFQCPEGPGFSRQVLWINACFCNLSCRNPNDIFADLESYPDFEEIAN
Kind of assay: ELISA screening.

The target of assay [2] is T2, recombinant human WISP1/His (human, UniProt O95388 23-367).
T2 construct: also called hWISP1; recombinant human WISP1 protein; not shown: His tag
T2 sequence (looked up): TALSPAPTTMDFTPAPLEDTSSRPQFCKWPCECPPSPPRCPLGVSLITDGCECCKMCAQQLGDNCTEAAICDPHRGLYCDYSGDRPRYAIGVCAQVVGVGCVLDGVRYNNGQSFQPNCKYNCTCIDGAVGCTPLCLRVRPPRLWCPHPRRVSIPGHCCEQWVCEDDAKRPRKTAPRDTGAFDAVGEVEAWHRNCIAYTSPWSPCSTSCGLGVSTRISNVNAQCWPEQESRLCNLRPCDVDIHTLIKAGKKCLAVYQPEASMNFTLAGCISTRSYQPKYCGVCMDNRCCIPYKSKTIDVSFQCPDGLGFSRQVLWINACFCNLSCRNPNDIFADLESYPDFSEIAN
Put plainly: ELISA screening.

Assay [3] addresses T2, recombinant human WISP1/His. Put plainly: SPR, IgG captured on anti-human Fc CM5 chip, human WISP1/His as analyte, 1:1 Langmuir fit. The protocol: This example illustrates binding affinities of various anti-WISP-1 antibodies disclosed herein. Briefly, Anti-human Fc antibody (GE, BR-1008-39) was immobilized on CM5 sensor chip to approximately 1000 RU using standard NHS/EDC coupling methodology. Antibodies (about 10 μg/ml) were captured for 60 s at a flow rate 10 μl/min. Recombinant human WISP1/His was serially diluted in running buffer (HBS-EP). All measurements were conducted with a flow rate of 30 μL/min. Surfaces were regenerated with 3M MgCl2 for 60 s. A 1:1 (Langmuir) binding model was used to fit the data.

B1: WIr2E4 (antibody, V domains shown)
VH: QVQLQQSGAEVKKPGASVKVSCKVSGYTLTELSMHWVRQAPGKGLEWMGGFDPEDGETIYAQKFQGRVTMTEDTSTDTAYMELSSLRSEDTAVYYCATDRWWERTTWGAFDIWGQGTMVTVSS
VL: QSVLTQPASVSGSPGQSITISCIGTGSAAVSWYQQHPGKAPKLIIYDVNNRPSGVSARFSGSKSDNTASLTISGLQAEDEGDYYCSTYGAGSTWVFGGGTKLTVL
notes: Fully human IgG; also called Wlr2E4
Turning to B1, the binding result in assay [1] and in assay [2] was “binds” throughout.

B2: WIr2C11 (antibody, V domains shown)
VH: QVQLVESGGALVQPGGSLRLSCAASGFTFSDHWLSWVRQAPGKGLEWVSSISSSSRYIHYADSVKGRFTISRDNAKNSLYLQMNSLSAEDTAVYYCAREDTSMATNGFDVWGQGTMVTVSS
VL: AIQLTQSPSSLSASVGDRVTITCRASQGIRNHLGWYQQKPGKAPKRLIYAASSLQSGVPSRFSGSGSGTEFTLTISGLQPEDFATYYCLQHNSYPFTFGQGTRLEIK
notes: Tested as IgG (captured by anti-human Fc); also called Wlr2C11
As for B2, in assay [1], the binding result is on record as “binds”. In assay [3], the equilibrium dissociation constant (Kd) amounted to 0.0817 µM, the off-rate (koff) was found to be 0.0219 s⁻¹ and the kon is 267000 M⁻¹ s⁻¹.

B3: WIr2D9 (antibody, V domains shown)
VH: QVQLVQSGAEVKKPGASVKVSCKVSGYTLTELSMHWVRQAPGKGLEWMGGFDPEDGETIYAQKFQGRVTMTEDTSTDTAYMELSSLRSEDTAVYYCATEGWFGELSPVYWGQGTLVTVSS
VL: AIQLTQSPSSLSASVGDRVTITCRASQDIRNDLGWYQQKPGRAPQRLIYTTSTLQSGVPSRFSGSGSGTEFTLTISSLQPEDFATYYCLQHNTYPWTFGQGTRLEIK
notes: Fully human IgG; also called Wlr2D9
For B3, the binding result in assay [1] and in assay [2] was “binds” in each case.

B4: WIr2G8 (antibody, V domains shown)
VH: QVQLVQSGAEVQKPGASVKVSCKASGYRFINNDIHWVRQATGQGLEWMGWMDPNNGKTGYAQKFQGRVTMTRDTSISTAYMELSSLRSEDTGVYYCVRGIIAAAGGGWGQGTLVTVSS
VL: DVVMTQSPSTLSASVGDRATITCRASQSVDTWLAWYQQKPGKAPHVLIYKASNLNSGVPSRFSGSGSGTEFTLTISSLQPDDFATYYCQQYKTWWTFGQGTKVEIK
notes: Fully human IgG; also called Wlr2G8
B4: the binding result in assay [1] and in assay [2] was “binds” each time.

B5: WIr2B9 (antibody, V domains shown)
VH: QVQLVQSGAEVKKPGSSVKVSCKASGGTFNNYNINWVRQAPGQGFEWMGRIVPMLGVPKYAQKFQGRVTISADMSTSTAYMELRSLRSDDTAMYYCARGEDLDPWGQGTLVTVS
VL: SYELMQPASVSGSPGQSITISCTGTSSDVGGYNYVSWYQQHPGKAPKLMIYDVSKRPSGVSNRFSGSKSGNTASLTISGLQAEDEADYYCSSYTSSSPYVFGTGTKVTVL
notes: Fully human IgG; also called Wlr2B9
For the molecule B5, the binding result in assay [1] and in assay [2] was “binds” in each case.

B6: WIr2D3 (antibody, V domains shown)
VH: QVQLVQSGGGLVQPGRSLRLSCAASGFTFSSYGMHWVRQAPGKGLEWVAVISYDGSNKYYADSVKGRFTISRDNSKNTLYLQMNSLRAEDTAVYYCFDDYVDYWGQGTLVTVSS
VL: DIVMTQTPSSLSASVGDRVTITCRASQGISNYLAWYQQKPGKAPKLLIYAASSLQSGVPSRFSGSGSGTDFTLTISSLRPEDFATYYCLQDYSFPLTFGGGTKVEIK
notes: Fully human IgG; also called Wlr2D3
B6: the binding result in assay [1] and in assay [2] was “binds” throughout.

B7: WIr2G7 (antibody, V domains shown)
VH: QVQLVQSGAEVKKPGASVKVSCKASGYTFTSYDINWVRQATGQGPEWLGWLNPGSGKTGNAQNFQGRVFMTWDTSKDTAYMEMSSLRSDDTAVYYCARNLDYWGQGTLVTVSS
VL: DIVMTQTPLSLPVTLGQPASISCRSSQSLVYSDGNTYLSWLQQRPGQPPRVLINQISNRFSGVPDRFSGSGAGTDFTLKISRVEAEDVGVYYCMQATQFPVTFGGGTKVEIK
notes: Fully human IgG; also called Wlr2G7
With B7, the binding result in assay [1] and in assay [2] was “binds” in each case.

B8: WIr2F6 (antibody, V domains shown)
VH: QMQLVQSGAEVKRPGASVKVSCKASGYSFTNFDINWVRQATGQGLEWMGWMDPNSGNSGSAPAFQGRVTMTRDTSIGTAYMELSGLTSEDTAVYYCARDDFYDSSGFDAWGQGTLVTVSS
VL: QSVLTQPPSASGTPGQTVTVSCSGRSSNVGSNTVDWYQHLPGTAPKLLIYSSNRRPSGVPDRFSGSKSGTSASLAISGLQSEDEADYYCAAWDDSLNVYVFGTGTKLTVL
notes: Tested as IgG (captured by anti-human Fc); also called Wlr2F6
On to B8, for which the binding result in assay [1] is listed as “binds”. Also, in assay [3], the Kd amounted to 0.0101 µM, the koff worked out at 0.00559 s⁻¹ and the on-rate constant (kon) turned out to be 554000 M⁻¹ s⁻¹.

B9: WIr2B8 (antibody, V domains shown)
VH: EVQLVQSGAEVKKPGSSVKVSCKASGGTFSSYAISWVRQAPGQGLEWMGGIIPIFGTANYAQKFQGRVTITADESTSTAYMELSSLRSEDTAVYYCARGQPFRDSSGYYWSYFDYWGQGTLVTVSS
VL: SYELTQPPSVSKDLRQTATLTCTGNSNNVGNQGAAWLQQHQGHPPKLLSDRNNNRPSGISERLSASRSENIASLTITGLQPEDEADYFCAAWDTSLNTFLFGGGTKLTVL
notes: Fully human IgG; also called Wlr2B8
For B9, the binding result in assay [1] and in assay [2] was “binds” throughout.

B10: WIr2D5 (antibody, V domains shown)
VH: EVQLVESGAEVKKPGASVKVSCKASGYTFTSYGISWVRQAPGQGLEWMGWISAYNGNTNYAQKLQGRVTMTTDTSTSTAYMELRSLRSDDTAVYYCARVRVFEYSSLMDVWGQGTTVTVSS
VL: AIQMTQSPSSLSASVGDRVTITCQASQDISNYLNWYQQKPGKAPKLLIYDASNLETGVPSRFSGSGSGTDFTFTISSLQPEDIATYYCQQHDNLPITFGQGTRLEIK
notes: Fully human IgG; also called Wlr2D5
For B10, the binding result in assay [1] and in assay [2] was “binds” throughout.

B11: WIr2D10 (antibody, V domains shown)
VH: QVQLVESGGGVVQPGRSLRLSCGASGFTFSRFAMHWVRQAPGKGLEWVTVTSFDGSEIYYADSVKGRFTISRDNSKNTLYLQMNSLRVDDTAVYFCARDALGSIDYWGQGTLVTVSS
VL: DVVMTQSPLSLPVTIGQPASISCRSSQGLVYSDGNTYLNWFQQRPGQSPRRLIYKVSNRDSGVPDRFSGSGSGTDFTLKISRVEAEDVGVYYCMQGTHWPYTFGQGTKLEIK
notes: Fully human IgG; also called Wlr2D10
For the molecule B11, the binding result in assay [1] and in assay [2] was “binds” throughout.

B12: WIr2H4 (antibody, V domains shown)
VH: EVQLVESGGDLVQPGGSLRLSCAASGFTLNSRDMHWVRQSTRTGLEWVAAISIAGDTYYPLSVRGRFTISRDTAKSSLYLQMNSLTDGDTAVYYCVRGRHFDGYKSVFFDSWGQGTLVTVSS
VL: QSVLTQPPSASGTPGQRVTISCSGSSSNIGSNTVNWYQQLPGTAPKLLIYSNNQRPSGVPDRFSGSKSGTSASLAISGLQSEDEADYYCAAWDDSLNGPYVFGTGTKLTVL
notes: Tested as IgG (captured by anti-human Fc); also called Wlr2H4
For the molecule B12, the binding result in assay [1] is given as “binds”. Moreover, in assay [3], the Kd was 0.000631 µM, the koff was determined as 0.00025 s⁻¹ and the on-rate (kon) stood at 396000 M⁻¹ s⁻¹.

B13: WIr2D6 (antibody, V domains shown)
VH: EVQLVQSGAEVKRSGASVKVSCKLSGDTLTDLSIHWVRQAPGKGLEWMGGFDFEDGEIVYGDKFKGRVTVTEDPSTDTAYMDLKRLTFEDTAIYYCATIKDIPGRYYFDFWGQGTLVTVSS
VL: VIWMTQSPSSVSASVGDTVTITCRASQGIRSWLAWYQQKPGKAPKLLIYGASSLHSGVPSRFSGSGSGTYFTLTISSLQPEDFATYYCQQADSFPPWTFGQGTKVEIK
notes: Tested as IgG (captured by anti-human Fc); also called Wlr2D6
Consider B13, for which, in assay [1], the binding result is recorded as “binds”. Also, in assay [3], the Kd was 0.0539 µM, the koff stood at 0.0489 s⁻¹ and the kon stood at 907000 M⁻¹ s⁻¹.

B14: WIr2H3 (antibody, V domains shown)
VH: EVQLVQSGGGMVQPGGSLRLSCAASGFTFSDYYMDWVRQAPGQGLEWVGRIRHKAQGYTTEYAASVKGRFSISRDDSRSSLSLQMNSLKTEDTAVYYCAMVGGSRDWGQGTLVTVSS
VL: QAGLTQPPSVSGAPGQRVTISCTGGSSNIGPGYAVHWYQQHPGRAPKLLIYTNNNRPSGVPDRFSGSRSGTSASLAITGLQAEDDAYYYCQSYDSSLSGSVFGGGTKLTVL
notes: Tested as IgG (captured by anti-human Fc); also called Wlr2H3
As to B14, in assay [1], the binding result is “binds”. For the same molecule, in assay [3], the Kd came to 0.0959 µM, the off-rate constant (koff) amounted to 0.00897 s⁻¹ and the kon worked out at 93500 M⁻¹ s⁻¹.

B15: WIr2H2 (antibody, V domains shown)
VH: EVQLVQSGADVKKPGASVKVSCQASGYTLTSYDIHWMRQAPGQGLEWMGWINPNSGNTGYAEKFQGRVAMTSHTSTSTVYMELSRLTSEDTAVYYCARGAMGGFDPWGQGTLVTVSS
VL: DIQMTQSPSSVSASVGDRVTITCRASQDISRWLAWYQQKPGKAPKLLIYAASTLQSGVPSRFSGSGSGTDFTLTISSLQPEDFATYYCQQANTFPITFGQGTRLEIK
notes: Fully human IgG; also called Wlr2H2
With B15, the binding result in assay [1] and in assay [2] was “binds” each time.
